Source: the Human Domainome abundance scans (Beltran et al. 2025)
± gives the uncertainty stated by the source.

B1: CD2-associated protein, residues 109 to 169; numbered along this chain, Q9Y5K6 (parent)
chain: KKRQCKVLFEYIPQNEDELELKVGDIIDINEEVEEGWWSGTLNNKLGLFPSNFVKELEVTD

Variants of: B1
Assay: abundance fitness (aPCA) (normalised: wild type 0, dead -1); higher = more abundant; growth selection in yeast, the domain comes from the species named
Settings: Homo sapiens

Point of comparison: KKRQCKVLFESIPQNEDELELKVGDIIDINEEVEEGWWSGTLNNKLGLFPSNFVKELEVTD [Y11S], abundance fitness -0.572 ± 0.15. Against it:
- KKRQCKVLFEYIPQNEDELELKVGDIIDINEEVEEGWWSGTLNNKLGLGPSNFVKELEVTD [F49G] — lower, -1.06 ± 0.27
- KKRQCKVLFEYIPQNEDELELKVGDIIDINEEVEEGWWSGTLNNKLGLTPSNFVKELEVTD [F49T] — within error, -0.921 ± 0.29
- KKRQCKVLFEYIPQNEDELLLKVGDIIDINEEVEEGWWSGTLNNKLGLFPSNFVKELEVTD [E20L] — higher, -0.157 ± 0.16
- KKRQCKVLFEYIPQNEDELSLKVGDIIDINEEVEEGWWSGTLNNKLGLFPSNFVKELEVTD [E20S] — within error, -0.317 ± 0.17
- KKRQCKVLFAYIPQNEDELELKVGDIIDINEEVEEGWWSGTLNNKLGLFPSNFVKELEVTD [E10A] — within error, -0.333 ± 0.15
- KKRQCKVLFEYIPQNEDELELKVGDIIDINEEVEEWWWSGTLNNKLGLFPSNFVKELEVTD [G36W] — within error, -0.59 ± 0.21
- KKRQCKVLFEYIPQNEDELELKVGDIIDINEEVEERWWSGTLNNKLGLFPSNFVKELEVTD [G36R] — higher, -0.323 ± 0.09
- KKRQCKVLFEYIPQNEDELELKVGDIIEINEEVEEGWWSGTLNNKLGLFPSNFVKELEVTD [D28E] — higher, 0.131 ± 0.11
- KKRQCKVLFEYIPHNEDELELKVGDIIDINEEVEEGWWSGTLNNKLGLFPSNFVKELEVTD [Q14H] — within error, -0.509 ± 0.42
- KKRQCKVLFEYIPQNEDELELKVGDIIDINEEVEEGWWSGTLNNKLGLFPSNFIKELEVTD [V54I] — higher, -0.113 ± 0.12
- KFRQCKVLFEYIPQNEDELELKVGDIIDINEEVEEGWWSGTLNNKLGLFPSNFVKELEVTD [K2F] — within error, -0.51 ± 0.42
- KSRQCKVLFEYIPQNEDELELKVGDIIDINEEVEEGWWSGTLNNKLGLFPSNFVKELEVTD [K2S] — within error, -0.754 ± 0.3
- KKRQHKVLFEYIPQNEDELELKVGDIIDINEEVEEGWWSGTLNNKLGLFPSNFVKELEVTD [C5H] — lower, -1.01 ± 0.21
- KKRQCKVLFEYIPQNEDELELKVGDIIDINEEVEEGWWSGTLNNKLGLFPSNFVKELSVTD [E58S] — higher, -0.035 ± 0.1
- KKRQCKVLFEYIPQNEDELELKVGDIIDINEEVWEGWWSGTLNNKLGLFPSNFVKELEVTD [E34W] — within error, -0.347 ± 0.15
- KKRQCKVLFEYIRQNEDELELKVGDIIDINEEVEEGWWSGTLNNKLGLFPSNFVKELEVTD [P13R] — higher, 0.026 ± 0.094
- KKRQCKVLFEYIPQEEDELELKVGDIIDINEEVEEGWWSGTLNNKLGLFPSNFVKELEVTD [N15E] — within error, -0.275 ± 0.21
- KKRQCKVLFEYIPQIEDELELKVGDIIDINEEVEEGWWSGTLNNKLGLFPSNFVKELEVTD [N15I] — within error, -0.851 ± 0.22
- KKRQCKRLFEYIPQNEDELELKVGDIIDINEEVEEGWWSGTLNNKLGLFPSNFVKELEVTD [V7R] — higher, -0.193 ± 0.17
- KKRQCKVLFEYIPQNEDELELKVGDIIDINEEVEEGWWSGTLNNKLGLFPSNFVKELEVSD [T60S] — higher, -0.039 ± 0.1
- KKRQCKVLFEYIPQNEDELELKVGDIIDINGEVEEGWWSGTLNNKLGLFPSNFVKELEVTD [E31G] — higher, -0.187 ± 0.16
- KKRQCKVLFEYIPQNEDELELKVGDIIDINEEVEEGWWSGTLRNKLGLFPSNFVKELEVTD [N43R] — higher, 0.061 ± 0.073
- KKRQCCVLFEYIPQNEDELELKVGDIIDINEEVEEGWWSGTLNNKLGLFPSNFVKELEVTD [K6C] — higher, 0.088 ± 0.052
- KKRQCKVLFEYIPQNEDESELKVGDIIDINEEVEEGWWSGTLNNKLGLFPSNFVKELEVTD [L19S] — within error, -0.826 ± 0.45
- KKRQCKVLFEYIPQNEDELELLVGDIIDINEEVEEGWWSGTLNNKLGLFPSNFVKELEVTD [K22L] — within error, -0.952 ± 0.38
- KKRQCKVLFEYIPQNEDELELVVGDIIDINEEVEEGWWSGTLNNKLGLFPSNFVKELEVTD [K22V] — within error, -0.388 ± 0.28
- KKRQCKVLFEYIPQNEDELELKVGDIIDINEEVEEGWNSGTLNNKLGLFPSNFVKELEVTD [W38N] — within error, -0.605 ± 0.26
- KKRQCKVLFEYIPQNEDELELKVIDIIDINEEVEEGWWSGTLNNKLGLFPSNFVKELEVTD [G24I] — within error, -0.226 ± 0.22
- KKRQCKVLFEYIPQNEDELELKVGDIIDINEEVEEGWWSGTLNNKLGMFPSNFVKELEVTD [L48M] — higher, -0.107 ± 0.08
- KKRQCKVLFEYIPQNEDELELKVGDIIDINEIVEEGWWSGTLNNKLGLFPSNFVKELEVTD [E32I] — within error, -0.28 ± 0.41
- KKRQCKVLFEYIPQNEDELELKVGDIIDINEEVEEGWWSGTLNNKLGLFPSNFVSELEVTD [K55S] — higher, -0.259 ± 0.08
- KKRQCKVLFEYIPQNEDELELKVGDIIDINEEVEEGWWSGTLNNKLGLFPSNFVDELEVTD [K55D] — within error, -0.313 ± 0.25
- KKRVCKVLFEYIPQNEDELELKVGDIIDINEEVEEGWWSGTLNNKLGLFPSNFVKELEVTD [Q4V] — higher, 0.118 ± 0.22
- KKRECKVLFEYIPQNEDELELKVGDIIDINEEVEEGWWSGTLNNKLGLFPSNFVKELEVTD [Q4E] — within error, -0.539 ± 0.45
- DKRQCKVLFEYIPQNEDELELKVGDIIDINEEVEEGWWSGTLNNKLGLFPSNFVKELEVTD [K1D] — higher, 0.195 ± 0.38
- KKRQCKVLFEYIPQNEDELELKVGDIEDINEEVEEGWWSGTLNNKLGLFPSNFVKELEVTD [I27E] — within error, -0.951 ± 0.43
- KKRQCKVLFEYIPQNEDELELKVGDIIDINEEVEEGWWSLTLNNKLGLFPSNFVKELEVTD [G40L] — lower, -1.17 ± 0.29
- KKRQCKVLFEYIPQNEDELELKVGDIIDICEEVEEGWWSGTLNNKLGLFPSNFVKELEVTD [N30C] — within error, -0.256 ± 0.42
- KKRQCKVLFEYIPQNEDELELKVGDIIDINEEVEEGWWSGTLNNKLGLFPANFVKELEVTD [S51A] — higher, 0.09 ± 0.07
- KKRQCKVLFEYIPQNEDELELKGGDIIDINEEVEEGWWSGTLNNKLGLFPSNFVKELEVTD [V23G] — within error, -0.458 ± 0.2
- KKRQCKVLFEYIPQNEDELELKIGDIIDINEEVEEGWWSGTLNNKLGLFPSNFVKELEVTD [V23I] — higher, -0.143 ± 0.24
- KKRQCKVLFEYIPQNEDELELKVGDIIDINEEVEEGWWSGTLNNKYGLFPSNFVKELEVTD [L46Y] — higher, 0.011 ± 0.049
